PMC4461266 (PLoS Pathogens, 2015)

Molecular target: PR8-PB1-GST (influenza A virus A/Puerto Rico/8/1934 …, UniProt P03431 1-757)
Test: pull-down
Details: both partners purified

B1: TRIM32-HIS (natural protein, human, UniProt Q13049 1-653, looked up)
chain: MAAAAASHLNLDALREVLECPICMESFTEEQLRPKLLHCGHTICRQCLEKLLASSINGVRCPFCSKITRITSLTQLTDNLTVLKIIDTAGLSEAVGLLMCRSCGRRLPRQFCRSCGLVLCEPCREADHQPPGHCTLPVKEAAEERRRDFGEKLTRLRELMGELQRRKAALEGVSKDLQARYKAVLQEYGHEERRVQDELARSRKFFTGSLAEVEKSNSQVVEEQSYLLNIAEVQAVSRCDYFLAKIKQADVALLEETADEEEPELTASLPRELTLQDVELLKVGHVGPLQIGQAVKKPRTVNVEDSWAMEATASAASTSVTFREMDMSPEEVVASPRASPAKQRGPEAASNIQQCLFLKKMGAKGSTPGMFNLPVSLYVTSQGEVLVADRGNYRIQVFTRKGFLKEIRRSPSGIDSFVLSFLGADLPNLTPLSVAMNCQGLIGVTDSYDNSLKVYTLDGHCVACHRSQLSKPWGITALPSGQFVVTDVEGGKLWCFTVDRGSGVVKYSCLCSAVRPKFVTCDAEGTVYFTQGLGLNLENRQNEHHLEGGFSIGSVGPDGQLGRQISHFFSENEDFRCIAGMCVDARGDLIVADSSRKEILHFPKGGGYSVLIREGLTCPVGIALTPKGQLLVLDCWDHCIKIYSYHLRRYSTP
notes: also called HIS-TRIM32; HIS-tagged TRIM32
binding result: binds
